# Test results published in publication PMC4132754 (Nucleic Acids Research, 2014).
# T1: UPF1 WT (human, UniProt Q92900-2 1-1118)
# T1 sequence: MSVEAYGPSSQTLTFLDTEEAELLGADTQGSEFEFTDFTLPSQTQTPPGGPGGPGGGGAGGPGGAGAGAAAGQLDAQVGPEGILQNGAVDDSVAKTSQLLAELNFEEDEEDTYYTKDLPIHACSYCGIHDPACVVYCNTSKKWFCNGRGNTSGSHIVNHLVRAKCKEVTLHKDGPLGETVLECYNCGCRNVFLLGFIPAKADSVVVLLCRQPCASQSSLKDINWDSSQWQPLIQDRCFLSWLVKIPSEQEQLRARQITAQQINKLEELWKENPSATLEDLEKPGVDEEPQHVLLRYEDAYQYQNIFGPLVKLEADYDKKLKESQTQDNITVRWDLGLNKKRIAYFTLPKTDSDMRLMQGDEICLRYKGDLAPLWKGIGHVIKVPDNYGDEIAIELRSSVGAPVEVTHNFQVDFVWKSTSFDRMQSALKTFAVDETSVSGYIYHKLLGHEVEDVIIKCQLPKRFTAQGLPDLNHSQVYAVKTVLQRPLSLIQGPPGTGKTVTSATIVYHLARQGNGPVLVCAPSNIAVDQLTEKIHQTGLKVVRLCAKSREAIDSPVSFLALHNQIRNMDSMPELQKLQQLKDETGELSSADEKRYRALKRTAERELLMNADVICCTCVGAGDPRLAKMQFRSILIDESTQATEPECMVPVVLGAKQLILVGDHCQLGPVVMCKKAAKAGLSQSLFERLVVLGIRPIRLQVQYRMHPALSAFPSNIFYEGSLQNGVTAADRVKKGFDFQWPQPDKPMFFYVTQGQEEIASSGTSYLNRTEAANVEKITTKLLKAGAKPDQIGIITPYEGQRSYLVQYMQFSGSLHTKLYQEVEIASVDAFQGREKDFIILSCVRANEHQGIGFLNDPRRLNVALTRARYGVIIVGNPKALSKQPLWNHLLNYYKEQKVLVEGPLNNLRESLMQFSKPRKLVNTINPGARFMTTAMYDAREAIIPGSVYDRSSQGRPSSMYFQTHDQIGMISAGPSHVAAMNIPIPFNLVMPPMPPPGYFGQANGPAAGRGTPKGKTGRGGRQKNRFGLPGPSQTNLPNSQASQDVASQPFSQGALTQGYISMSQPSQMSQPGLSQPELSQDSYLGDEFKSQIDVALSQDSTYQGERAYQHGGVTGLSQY
# T2: UPF1 ΔStalk (human, UniProt Q92900-2 1-1118, del271-433)
# T2 sequence: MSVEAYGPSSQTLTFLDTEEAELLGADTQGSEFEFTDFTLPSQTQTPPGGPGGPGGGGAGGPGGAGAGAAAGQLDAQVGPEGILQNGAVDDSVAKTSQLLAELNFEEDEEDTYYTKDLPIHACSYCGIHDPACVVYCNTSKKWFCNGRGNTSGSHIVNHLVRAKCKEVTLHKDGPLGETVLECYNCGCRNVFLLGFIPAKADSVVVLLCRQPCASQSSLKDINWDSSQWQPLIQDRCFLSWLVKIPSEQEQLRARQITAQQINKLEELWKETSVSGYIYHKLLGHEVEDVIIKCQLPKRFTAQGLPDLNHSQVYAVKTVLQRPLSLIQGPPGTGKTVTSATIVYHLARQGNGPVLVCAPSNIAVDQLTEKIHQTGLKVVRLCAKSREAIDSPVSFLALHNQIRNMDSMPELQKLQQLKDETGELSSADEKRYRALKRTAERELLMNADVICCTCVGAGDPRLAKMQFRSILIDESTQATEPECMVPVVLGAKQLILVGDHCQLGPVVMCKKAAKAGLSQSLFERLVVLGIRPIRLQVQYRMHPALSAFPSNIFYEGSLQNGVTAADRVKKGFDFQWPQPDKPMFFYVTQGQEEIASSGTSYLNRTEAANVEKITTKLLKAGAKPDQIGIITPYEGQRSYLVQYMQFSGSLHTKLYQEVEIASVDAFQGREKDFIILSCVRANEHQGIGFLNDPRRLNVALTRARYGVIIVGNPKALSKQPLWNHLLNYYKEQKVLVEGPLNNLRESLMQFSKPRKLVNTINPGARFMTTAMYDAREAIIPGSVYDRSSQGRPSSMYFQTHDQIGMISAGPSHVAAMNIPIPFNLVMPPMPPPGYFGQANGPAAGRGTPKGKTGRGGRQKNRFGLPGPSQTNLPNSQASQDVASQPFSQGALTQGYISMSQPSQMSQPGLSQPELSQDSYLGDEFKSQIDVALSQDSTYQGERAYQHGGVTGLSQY
# T3: UPF1 Δ1C (human, UniProt Q92900-2 1-1118, del561-608)
# T3 sequence: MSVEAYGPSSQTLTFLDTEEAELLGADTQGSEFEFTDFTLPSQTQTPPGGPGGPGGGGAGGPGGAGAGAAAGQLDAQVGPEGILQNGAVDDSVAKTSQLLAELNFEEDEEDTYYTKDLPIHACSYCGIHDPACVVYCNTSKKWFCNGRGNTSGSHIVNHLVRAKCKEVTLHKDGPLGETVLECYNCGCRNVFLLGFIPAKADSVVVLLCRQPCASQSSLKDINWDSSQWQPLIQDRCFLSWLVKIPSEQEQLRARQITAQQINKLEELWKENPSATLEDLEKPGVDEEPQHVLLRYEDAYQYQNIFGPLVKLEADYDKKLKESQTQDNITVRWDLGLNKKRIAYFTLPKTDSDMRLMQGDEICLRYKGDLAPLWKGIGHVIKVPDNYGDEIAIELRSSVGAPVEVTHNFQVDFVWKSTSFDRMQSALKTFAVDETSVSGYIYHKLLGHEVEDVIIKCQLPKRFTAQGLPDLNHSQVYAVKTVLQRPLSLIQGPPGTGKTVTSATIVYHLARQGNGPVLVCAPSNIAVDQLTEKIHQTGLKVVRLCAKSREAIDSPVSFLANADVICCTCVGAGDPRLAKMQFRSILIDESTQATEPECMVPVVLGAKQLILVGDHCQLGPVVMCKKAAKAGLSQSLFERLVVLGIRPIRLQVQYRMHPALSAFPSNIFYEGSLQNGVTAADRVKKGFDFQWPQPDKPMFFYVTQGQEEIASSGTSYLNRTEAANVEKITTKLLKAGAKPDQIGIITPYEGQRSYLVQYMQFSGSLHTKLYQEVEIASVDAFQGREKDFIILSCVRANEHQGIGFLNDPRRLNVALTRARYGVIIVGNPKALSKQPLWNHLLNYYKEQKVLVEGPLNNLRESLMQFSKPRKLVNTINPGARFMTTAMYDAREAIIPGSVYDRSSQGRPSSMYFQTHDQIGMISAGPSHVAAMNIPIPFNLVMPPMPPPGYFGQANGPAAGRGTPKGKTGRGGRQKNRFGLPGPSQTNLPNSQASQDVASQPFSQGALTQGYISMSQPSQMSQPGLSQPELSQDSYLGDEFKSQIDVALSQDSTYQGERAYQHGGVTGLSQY
# Assays:
# Test in all cases: MST
# [1] = biological target: T1, UPF1 WT
# [2] = biological target: T2, UPF1 ΔStalk
# [3] = biological target: SMG6 (human, UniProt Q86US8 1-1419)
# Sequence of SMG6 (Q86US8 whole entry): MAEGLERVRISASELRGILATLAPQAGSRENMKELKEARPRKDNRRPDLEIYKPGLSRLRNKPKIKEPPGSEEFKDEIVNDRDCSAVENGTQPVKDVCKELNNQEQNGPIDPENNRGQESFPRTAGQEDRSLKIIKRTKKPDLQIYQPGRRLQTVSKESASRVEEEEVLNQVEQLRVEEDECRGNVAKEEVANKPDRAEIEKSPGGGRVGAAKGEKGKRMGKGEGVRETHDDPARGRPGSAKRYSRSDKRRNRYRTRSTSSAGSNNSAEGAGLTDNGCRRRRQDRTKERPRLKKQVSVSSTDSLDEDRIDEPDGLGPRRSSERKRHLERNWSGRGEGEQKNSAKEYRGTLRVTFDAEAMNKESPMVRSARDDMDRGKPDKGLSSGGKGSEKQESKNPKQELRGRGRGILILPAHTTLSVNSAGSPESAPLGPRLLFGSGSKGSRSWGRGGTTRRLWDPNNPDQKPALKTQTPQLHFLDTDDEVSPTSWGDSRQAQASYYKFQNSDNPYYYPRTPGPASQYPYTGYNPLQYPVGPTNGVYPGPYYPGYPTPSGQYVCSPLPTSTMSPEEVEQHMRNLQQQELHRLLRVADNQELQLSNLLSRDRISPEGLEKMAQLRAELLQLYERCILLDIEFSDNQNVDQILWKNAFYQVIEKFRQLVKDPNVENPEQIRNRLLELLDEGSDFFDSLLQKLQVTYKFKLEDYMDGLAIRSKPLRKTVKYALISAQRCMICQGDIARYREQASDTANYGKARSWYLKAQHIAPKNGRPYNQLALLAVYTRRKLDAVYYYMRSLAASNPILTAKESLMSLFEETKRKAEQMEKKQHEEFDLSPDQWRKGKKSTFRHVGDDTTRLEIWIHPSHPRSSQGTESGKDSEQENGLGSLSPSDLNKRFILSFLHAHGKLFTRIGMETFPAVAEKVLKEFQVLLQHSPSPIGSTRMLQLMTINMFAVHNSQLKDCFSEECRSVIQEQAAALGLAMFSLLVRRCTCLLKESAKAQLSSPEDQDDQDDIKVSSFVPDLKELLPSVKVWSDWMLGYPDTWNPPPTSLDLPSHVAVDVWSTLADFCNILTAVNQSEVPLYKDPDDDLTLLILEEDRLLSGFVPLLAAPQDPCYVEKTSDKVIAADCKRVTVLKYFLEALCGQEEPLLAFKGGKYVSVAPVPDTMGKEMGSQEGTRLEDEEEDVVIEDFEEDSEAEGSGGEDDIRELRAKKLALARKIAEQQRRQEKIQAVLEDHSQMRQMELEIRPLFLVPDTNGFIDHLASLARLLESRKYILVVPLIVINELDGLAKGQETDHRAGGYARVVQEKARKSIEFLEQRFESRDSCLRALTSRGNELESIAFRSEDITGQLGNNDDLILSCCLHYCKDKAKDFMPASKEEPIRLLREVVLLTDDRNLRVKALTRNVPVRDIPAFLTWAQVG
# [4] = biological target: T3, UPF1 Δ1C
binder,measurement,setting,value
UUUUUUUUUUUUUUUUUUUUUUUUUUUUUU (ssRNA) [U30 RNA],Kd,[1],1.48 nM
same,Kd,[2],6.51 nM
same,binding result,[3],no binding
same,binding signal,[4],32.2 fold lower affinity than WT
